Results on four molecules are retold here after patent US20080193921, “Methods to identify agents that bind the flap-tip helix of RNA polymerase” (Wisconsin Alumni Research Foundation, published 2008).

Data set [1] deals with σ^70 lacking region 1 and region 4 (UniProt P00579). In words: trypsin protection of the β flap-tip by σ70 lacking regions 1 and 4; wild-type RNAP without σ: 9.2 ± 0.1.
In another data set the target is σ^70 lacking region 4 (UniProt P00579). In words: trypsin protection of the β flap-tip by σ70 lacking region 4; wild-type RNAP without σ: 9.2 ± 0.1.
Another data set deals with σ^70 lacking region 1 (UniProt P00579). In words: trypsin protection of the β flap-tip by σ70 lacking region 1; wild-type RNAP without σ: 9.2 ± 0.1.
The target of data set [2] is RNA polymerase core, wild-type (alpha2 beta beta' omega) (Escherichia coli) (UniProt P0A7Z4+P0A8V2+P0A8T7+P0A800). Particulars: [3H]UMP incorporation, -sigma70; SD 0.05.
The target in data set [3] is RNA polymerase beta I905N beta I905N (Escherichia coli) (UniProt P0A7Z4+P0A8V2+P0A8T7+P0A800). Particulars: -sigma70; SD 0.04.
The target in data set [4] is RNA polymerase beta L902P beta L902P (Escherichia coli) (UniProt P0A7Z4+P0A8V2+P0A8T7+P0A800). Particulars: -sigma70; SD 0.05.
Data set [5] deals with RNA polymerase sigma70 holoenzyme, beta F906A beta F906A (Escherichia coli) (UniProt P0A7Z4+P0A8V2+P0A8T7+P0A800+P00579). Particulars: +sigma70; SD 0.15.
Data set [6] deals with RNA polymerase beta L901R beta L901R (Escherichia coli) (UniProt P0A7Z4+P0A8V2+P0A8T7+P0A800). Particulars: -sigma70; SD 0.05.
Data set [7] deals with RNA polymerase sigma70 holoenzyme, beta I905N beta I905N (Escherichia coli) (UniProt P0A7Z4+P0A8V2+P0A8T7+P0A800+P00579). Particulars: +sigma70; SD 0.02.
Data set [8] addresses RNA polymerase beta F906A beta F906A (Escherichia coli) (UniProt P0A7Z4+P0A8V2+P0A8T7+P0A800). Particulars: -sigma70; SD 0.14.
The target of data set [9] is RNA polymerase sigma70 holoenzyme, beta delta(900-909) beta deletion 900-909 (Escherichia coli) (UniProt P0A7Z4+P0A8V2+P0A8T7+P0A800+P00579). Particulars: +sigma70; SD 0.05.
The target of data set [10] is RNA polymerase sigma70 holoenzyme, wild-type (Escherichia coli) (UniProt P0A7Z4+P0A8V2+P0A8T7+P0A800+P00579). Particulars: +sigma70; SD 0.1.
Data set [11] concerns the target RNA polymerase beta L901Q beta L901Q (Escherichia coli) (UniProt P0A7Z4+P0A8V2+P0A8T7+P0A800). Particulars: -sigma70; SD 0.05.
Data set [12] concerns the target RNA polymerase sigma70 holoenzyme, beta L902P beta L902P (Escherichia coli) (UniProt P0A7Z4+P0A8V2+P0A8T7+P0A800+P00579). Particulars: +sigma70; SD 0.09.
In data set [13] the target is RNA polymerase sigma70 holoenzyme, beta L901R beta L901R (Escherichia coli) (UniProt P0A7Z4+P0A8V2+P0A8T7+P0A800+P00579). Particulars: +sigma70; SD 0.07.
In data set [14] the target is RNA polymerase beta delta(900-909) beta deletion 900-909 (Escherichia coli) (UniProt P0A7Z4+P0A8V2+P0A8T7+P0A800). Particulars: -sigma70; SD 0.02.
Data set [15] concerns the target RNA polymerase sigma70 holoenzyme, beta L901Q beta L901Q (Escherichia coli) (UniProt P0A7Z4+P0A8V2+P0A8T7+P0A800+P00579). Particulars: +sigma70; SD 0.07.
Data set [16] concerns the target T1, RNA polymerase core, wild-type (alpha2 beta beta' omega) (Escherichia coli, UniProt P0A7Z4;P0A8V2;P0A8T7;P0A800 P0A7Z4:1-329,P0A8V2:1-1342,P0A8T7:1-1407,P0A800:2-91). Nature of the data set: 5-iodoU UV crosslinking in paused TEC. Particulars: tags: N-terminal His6 on beta; beta' C-terminal intein-CBD removed by DTT; chain copies: 2,1,1,1; label: 32P; hairpin.
The target of data set [17] is T1, RNA polymerase core, wild-type (alpha2 …). In words: UV crosslinking (5-iodoU) in paused TEC; mapped to beta 904-908. Particulars: tags: N-terminal His6 on beta; beta' C-terminal intein-CBD removed by DTT; chain copies: 2,1,1,1; label: 32P; hairpin. The procedure: (§1) First, paused TECs containing either wild-type or βK909C mutant RNAPs and a wild-type pause hairpin loop derivatized with 5-iodoU and [α-³²P]CMP were prepared (FIG. 1A). The 5-iodoU crosslink was mapped by cleaving the crosslinked β subunit either to completion with trypsin or partially with 2-nitro-5-thiobenzoic-acid (NTCB), and by separating the cleavage products on SDS polyacrylamide gels (8-16% gradient; FIG. 6A). Trypsin cleavage was performed prior to disruption of the TEC, which results in cleavage within β only at R903 and K909 (Boruhkov et al., 1991). […] NTCB cleaves at Cys residues, which are present at seven positions in wild-type β and eight in βK909C.

Data set [18] addresses RNA polymerase beta K909C (Escherichia coli, UniProt P0A7Z4;P0A8V2;P0A8T7;P0A800 P0A7Z4:1-329,P0A8V2:1-1342,P0A8T7:1-1407,P0A800:2-91, beta K909C). Nature of the data set: UV crosslinking in paused TEC; crosslink maps between 903 and 909. Particulars: tags: N-terminal His6 on beta; chain copies: 2,1,1,1; label: 32P; hairpin. The procedure:
as §1

For data set [19], the target named is RNA polymerase beta F906A (Escherichia coli, UniProt P0A7Z4;P0A8V2;P0A8T7;P0A800 P0A7Z4:1-329,P0A8V2:1-1342,P0A8T7:1-1407,P0A800:2-91, beta F906A). In words: 4-thioU crosslink retained while 5-iodoU crosslink lost; hairpin-flap interaction not altered. Particulars: tags: N-terminal His6 on beta, beta' intein-CBD removed by DTT, chain copies: 2,1,1,1, label: 32P.

Consider “wild-type Escherichia coli RNA polymerase (core enzyme, α, β, β′ subunits)”, for which the values for the β cleavage rate + σ^70 (in data set [1]; with σ^70 lacking region 4; with σ^70 lacking region 1) were 0.011 s⁻¹, 0.011 s⁻¹ and 0.0062 s⁻¹, respectively.

Take poly(dA dT): the binding signal (relative to wild-type core) in [2] was found to be 1; in [3], 1; in [4], 1.2; in data set [5] it was 2.1; in [6], 1.2; in [7] it was 1.3. Also, the binding signal (relative to wild-type core) turned out to be 1 in data set [8]; 0.9 in [9]; 2 in data set [10]; 1.2 in [11]; 1.5 in [12]; 1.5 in data set [13]. The binding signal (relative to wild-type core) in data set [14] worked out at 0.95; in [15], 1.4.

For CCUGCUUCGGCAGGCGAUGUGUGCUG (ssRNA, 5-iodoU in hairpin loop) [his pause RNA, tetraloop hairpin], the binding result in data set [16] was “binds”.

On to CCUGACUAGUCUUUCAGG (ssRNA, 5-iodoU or 4-thioU in hairpin loop) [his pause RNA hairpin, wild-type], for which the binding result in data set [17], in data set [18] and in [19] was “binds” each time.
